These results are taken from patent US20030049258A1, “Method of increasing the contractility of a heart, a heart muscle or cells of a heart muscle” (priority 2001, published 2003).

For assay [1], the system named is adult ventricular cardiomyocytes. In words: Intracellular cAMP formation in cardiomyocytes (ELISA). In kind it is cell-based, rabbit. The method, then: (§1) Single calcium-tolerant ventricular myocytes were isolated from White New Zealand rabbits. Cardiomyocytes from healthy or failing rabbit hearts were isolated according to the same protocol (Laugwitz et al. (2001) Circ Res. 88, 688-95). Briefly, the hearts were perfused and digested with collagenase. The isolated cardiomyocytes were then resuspended and cultured in modified M199 on laminin-precoated dishes (5-10 μg/cm^2) at a density of 1.5×10^5 cells per cm^2 (at 5% CO2 and 37° C.). The cells were infected with adenovirus (multiplicity of infection (moi) 1 pfu/cell) 5 hours after plating. 50-60% of the infected cardiomyocytes express the transgene at this titer. Cardiomyocytes were harvested 48 hours after adenoviral infection. The cells were homogenized and cytosolic extracts were then used for western bloffing by using a polyclonal rabbit antibody raised against phosducin. Goat anti-rabbit second antibodies by Dianova, Germany, were used as second antibodies.
Intracellular cAMP formation in cardiomyocytes: The effects of nt-del-phosducin expression on G protein-mediated signalling are shown based on the measurement of cAMP accumulation in isolated cardiomyocytes after ex vivo gene transfer. Cardiomyocytes were investigated 48 hours after adenoviral infection. The cells were harvested and stimulated with increasing concentrations of isoproterenol for 20 minutes. […]
(In general: Cyclic AMP is a second messenger, typically raised through Gs and lowered through Gi signalling.)

In assay [2] the test system is cardiomyocytes isolated from healthy hearts. In words: Single cell contraction after ex vivo adenoviral gene transfer, healthy cardiomyocytes. In kind it is cell-based, rabbit. As to the method: (§2) Recombinant (E1/E3-Deficient) flag-tagged adenovirus for nt-del-phosducin (Ad-nt-del-phosducin-GFP) was generated, expressing the transgene and green fluorescence protein (GFP) under the control of two independent CMV promoters in a bi-cistronic system (He et al. (1998) Proc Natl Acad Sci USA 95, 2509-14). As a control, Ad-GFP without further transgenes was used. Large virus stocks were prepared as described previously (Laugwitz et al. (1999) Circulation 99, 925-933). Adenoviral titers were determined using plaque titration and GFP expression titration in non E1-expressing cells.
as §1
(§3) Single cell contraction after adenovirus delivery: Contractility of infected cardiomyocytes was measured by an electro-optical monitoring system connected to online digitalized assessment of amplitude and velocity of shortening and of relaxation as described before (Laugwitz et al. (2001) Circ Res. 88, 688-95). After the contraction amplitude reached stability, increasing concentrations of isoproterenol were applied.

Assay [3] relates to Gβγ-dependent signalling pathways. In words: IP3 assay: inhibition of Gβγ-mediated effects in adenovirus-infected cardiomyocytes. The assay is classed as cell-based, rabbit. The conditions noted are these: response to 1 μmol/L bradykinin or 10 μmol/l acetylcholine, 1 minute, vs Ad-GFP. The method, then: For IP3 assays, adenovirus-infected cardiomyocytes were stimulated with the respective agonists for 1 minute, and the reaction was stopped by adding perchloric acid (4%) and scratching the cells off. They were centrifuged at 2000×g, and then […] of KOH (10 mol/L) was added. The solution was resuspended and centrifuged again, and the protein content of each sample was determined by the method of Bradford (1976) Anal. Biochem. 72, 248-254. The supernatant was used for an assay kit using ^3H-inositol-(1,4,5)-trisphophate and a binding protein (Amersham, cat. no. TRK 1000) to measure IP3 formation, following the manufacturer's instructions.
For IP3 assays, cardiomyocytes infected with Ad-GFP or Ad-nt-del-phosducin-GFP (Example 1) were stimulated with 1 μmol/L bradykinin or 10 μmol/l acetyl choline, for 1 minute. In addition, basal levels were determined in the absence of agonists. Then the reaction was stopped by adding perchloric acid (4%) and scratching the cells off. They were centrifuged at 2000×g, and then 10 μl of KOH (10 mol/L) was added. The solution was resuspended and centrifuged again, and the protein content of each sample was determined by the method of Bradford^22. The supernatant was used for an assay kit using ^3H-inositol-(1,4,5)-trisphophate and a binding protein (Amersham, cat. no. TRK 1000) to measure IP3 formation, following the manufacturer's instructions. […]

Assay [4] concerns rabbits with heart failure. Kind of assay: Pacing-induced heart failure after in vivo adenoviral gene transfer: tip catheterization and echocardiography. Further details: species or system New Zealand White rabbits. An excerpt:
Model of Heart Failure: Medtronic pacemakers were implanted into New Zealand White rabbits (weight 3.6±0.3 Kg; from Harlan, Munich, Germany). Two days afterwards, rapid pacing was initiated at 320 beats/min. Under this protocol, a tachycardia-induced heart failure (HF) develops reproducibly over one week. Pacing was then continued at 360 beats/min, which predictably led to a further deterioriation of heart failure. The average contractility in failing hearts was 2200±320 mmHg/sec (vs. 4000±390 mmHg/sec in healthy controls; p<0.05), and LVEDP increased from 3.6±0.4 mmHg to 13.5±1.2 (p<0.05).
Adenoviral Gene Transfer To Rabbit Myocardium: After the first week of rapid pacing, all rabbits received catheter-based adenoviral gene transfer (5×10^9 pfu) to the myocardium as described before (Weig et al. (2000) Circulation 101, 1578-1585). For the intervention, the rabbitswere anesthetized with fentanyl and propofol.
Myocardial Contractility Measurement by Echocardiography and Intraventricular Tip Catheterization: Left ventricular contractility was examined before the initiation of rapid pacing, before adenoviral gene transfer, and at the end of the protocol (two weeks after the start of pacing and one week after gene transfer). The rabbits were anesthetized as described before; ECG was monitored continuously.
For echocardiography, a 7.5 MHz probe was fixed on a tripod. Standard sections were recorded, which were well reproducible. For tip catheter measurements, a Millar 3F tip catheter connected to a differentiating device was placed in the left ventricle. After definition of basal contractility and left ventricular pressure, 200 μL of NaCl (0.9%) was injected as a negative control. Isoproterenol was infused at increasing doses. After a sufficient equilibration period, tip catheter measurements were carried out.
Improvement of LV dysfunction in pacing-induced heart failure after adenovirus delivery: Ad-GFP and Ad-nt-del-phosducin-GFP were directly delivered to rabbit hearts after 1 week of rapid pacing, and hemodynamic parameters were measured after another week of pacing at 360 bpm. […]

Assay [5] relates to cardiomyocytes isolated from failing hearts. Kind of assay: Single cell contraction after ex vivo adenoviral gene transfer, failing cardiomyocytes. The assay is classed as cell-based, rabbit. The method, then: as §2, §1, §3
The next assay has as its system adenylyl cyclase. The conditions noted are these: compared to controls in different cell types and tissues (Bauer et al. 1992; Schulz et al. 1996); cited from earlier work.
Assay [6] concerns transgenic heart failure model (β1-TG4). In words: Transgenic mouse overexpressing full-length phosducin cross-bred with heart failure model (histology). In kind it is in vivo. The conditions noted are these: heart-failing mice vs heart-failing mice cross-bred with overexpressing mice. As to the method: FIG. 8 Histological alterations in transgenic mouse hearts. Hematoxylin/eosin-stained 5 μm sections of paraffin-embedded left ventricular myocardium from healthy wild-type mice and from a transgenic heart failure model (,β-TG4”, see Engelhardt et al. (1999) Proc. Natl. Acad. Sci. USA 96, 7059-64). […] The sequence of full-length phosducin was cloned into a plasmid as described by Engelhardt et al. (1999) Proc. Natl. Acad. Sci. USA 96, 7059-64. The purified linear DNA (1 μg/μl) was injected into fertilized oocytes from superovulated FVB/N mice according to standard procedures. The injected oocytes were transferred to the oviducts of pseudopregnant CD-1 mice. All mice were kept in a specific pathogen-free facility. Generation and investigation of these mice was approved by the responsible government authorities. The F0 generation was screened for integration of the transgene by PCR using specific primers. The transgenic mouse was tested with regard to the effect of overexpression of wild type full-length phosducin on the development of heart failure in a murine disease model.

As to `CC(C)NCC(O)c1ccc(O)c(O)c1` (stereo not drawn) [isoproterenol, reference compound], the “intracellular cAMP content” value in assay [1] (isoproterenol stimulation, all groups, FIG. 3) was “increased”.

B1: nt-del-phosducin: N-terminal truncated human phosducin variant of SEQ ID No: 2 (52 N-terminal amino acids deleted), expressed from adenovirus Ad-nt-del-phosducin-GFP (protein, listed as Homo sapiens)
chain: MSSPQSRDDKDSKERFSRKMSVQEYELIHKDKEDENCLRKYRRQCMQDMHQKLSFGPRYGFVYELESGEQFLETIEKEQKITTIVVHIYEDGIKGCDALNSSLICLAAEYPMVKFCKIKASNTGAGDRFSSDVLPTLLVYKGGELLSNFISVTEQLAEEFFTGDVESFLNEYGLLPEKEMHVLEQSNMEEDME
modifications: GFP expressed via adenovirus
Consider B1, for which, in assay [1] (48 hours after infection, isoproterenol 20 minutes, vs GFP, did not reach statistical significance), the “cAMP formation in response to isoproterenol” value was “trend towards decreased cAMP formation”. For the same molecule, in assay [2] (compared to Ad-GFP-infected control cells, FIG. 5A), the “basal and maximal contractility in response to isoproterenol” value is “markedly increased”. Further, the shortening velocity result in assay [2] (compared with contraction amplitude results, normal and failing cardiomyocytes) is given as “Very similar results”. In addition, the “Emax of fractional shortening in response to isoproterenol” value amounted to 11.2±0.2 in assay [2] (healthy cells, infected ex vivo, Hill equation fit) and 7.8±0.1 in assay [5] (failing cells, infected ex vivo, Hill equation fit). Besides, the “shift of isoproterenol concentration-response curve” value in assay [2] (normal cells) and in assay [5] (failing cells) was “significantly shifted to the left” each time. In addition, the “intracellular IP3 formation” value in assay [3] is recorded as “reduced”. Further, the “LV fractional shortening (FS) by serial echocardiography” value in assay [4] (change during the second week of rapid pacing (before gene transfer vs end of experiment)) is “did not change”. Also, the “first derivative of LV pressure (dp/dt max)” value in assay [4] (one week after gene transfer, in response to isoproterenol, vs Ad-GFP-infected control group) is “significantly higher”. The “increase in systolic LV pressure in response to isoproterenol” value in assay [4] (one week after gene transfer, vs Ad-GFP-infected control group) is reported as “significantly higher”. In addition, the “maximal contraction amplitude in response to isoproterenol” value in assay [5] (failing cardiomyocytes, FIG. 5B) was “enhanced”.

B2: full-length phosducin: Wild type full-length phosducin, Gβγ binding protein; overexpressed in transgenic mouse hearts (protein)
chain: MEEAKSQSLEEDFEGQATHTGPKGVINDWRKFKLESQDSDSIPPSKKEILRQMSSPQSRNGKDSKERVSRKMSIQEYELIHKEKEDENCLRKYRRQCMQDMHQKLSFGPRYGFVYELETGKQFLETIEKELKITTIVVHIYEDGIKGCDALNSSLTCLAAEYPIVKFCKIKASNTGAGDRFSLDVLPTLLIYKGGELISNFISVAEQFAEEFFAGDVESFLNEYGLLPEREVHVLEHTKIEEEDVE
Take B2: the “maximal βAR-dependent adenylyl cyclase stimulability” value in the assay with adenylyl cyclase was “significantly decrease”. In addition, the “degree of heart failure (histologically: myocyte hypertrophy and fibrosis of heart sections)” value in assay [6] was “no observable differences”.
